Blank lines part the entries; values can stand above or below the binder they belong to.
B1: CD163 ectodomain (human CD163, residue 1-1050) (receptor)
chain: not shown
B4: human haptoglobin Hp2 (residue 1-406) (natural protein)
chain: VDSGNDVTDIADDGCPKPPEIAHGYVEHSVRYQCKNYYKLRTEGDGVYTLNDKKQWINKAVGDKLPECEADDGCPKPPEIAHGYVEHSVRYQCKNYYKLRTEGDGVYTLNNEKQWINKAVGDKLPECEAVCGKPKNPANPVQRILGGHLDAKGSFPWQAKMVSHHNLTTGATLINEQWLLTTAKNLFLNHSENATAKDIAPTLTLYVGKKQLVEIEKVVLHPNYSQVDIGLIKLKQKVSVNERVMPICLPSKDYAEVGRVGYVSGWGRNANFKFTDHLKYVMLPVADQDQCIRHYEGSTVPEKKTPKSPVGVQPILNEHTFCAGMSKYQEDTCYGDAGSAFAVHDLEEDTWYATGILSFDKSCAVAEYGVYVKVTSIQDWVQKTIAEN

Legend:
AUC [1] = molecular target: the molecule itself; experiment: AUC
SEC [2] = molecular target: the molecule itself; experiment: SEC
AUC [3] = molecular target: the molecule itself; experiment: AUC; remark: listed apart in the source
[4] = molecular target: B1; experiment: SEC
CD163 ectodomain E359A = CD163 ectodomain E359A (human, UniProt Q86VB7 42-1050, E359A); experiment: pull-down
[5] = molecular target: CD163 ectodomain D292A/D293A (human, UniProt Q86VB7 42-1050, D292A | D293A); experiment: pull-down
[6] = molecular target: B1; experiment: AUC
SEC [7] = molecular target: the molecule itself; experiment: SEC; remark: listed apart in the source
[8] = molecular target: B4; experiment: SEC
[9] = molecular target: T1, human haptoglobin Hp1 (residue 1-347) (human, UniProt P00738-2 19-347); experiment: SEC
T1 sequence: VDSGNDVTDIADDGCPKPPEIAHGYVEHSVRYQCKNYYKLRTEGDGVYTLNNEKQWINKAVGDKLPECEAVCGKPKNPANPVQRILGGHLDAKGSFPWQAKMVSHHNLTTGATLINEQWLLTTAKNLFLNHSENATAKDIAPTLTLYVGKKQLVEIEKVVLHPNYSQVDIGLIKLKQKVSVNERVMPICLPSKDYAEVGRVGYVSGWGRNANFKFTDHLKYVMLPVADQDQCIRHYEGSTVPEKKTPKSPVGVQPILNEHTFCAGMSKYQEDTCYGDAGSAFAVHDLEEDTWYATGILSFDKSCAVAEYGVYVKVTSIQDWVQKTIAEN

Chain of CD163 ectodomain E359A (Q86VB7 42-1050 E359A): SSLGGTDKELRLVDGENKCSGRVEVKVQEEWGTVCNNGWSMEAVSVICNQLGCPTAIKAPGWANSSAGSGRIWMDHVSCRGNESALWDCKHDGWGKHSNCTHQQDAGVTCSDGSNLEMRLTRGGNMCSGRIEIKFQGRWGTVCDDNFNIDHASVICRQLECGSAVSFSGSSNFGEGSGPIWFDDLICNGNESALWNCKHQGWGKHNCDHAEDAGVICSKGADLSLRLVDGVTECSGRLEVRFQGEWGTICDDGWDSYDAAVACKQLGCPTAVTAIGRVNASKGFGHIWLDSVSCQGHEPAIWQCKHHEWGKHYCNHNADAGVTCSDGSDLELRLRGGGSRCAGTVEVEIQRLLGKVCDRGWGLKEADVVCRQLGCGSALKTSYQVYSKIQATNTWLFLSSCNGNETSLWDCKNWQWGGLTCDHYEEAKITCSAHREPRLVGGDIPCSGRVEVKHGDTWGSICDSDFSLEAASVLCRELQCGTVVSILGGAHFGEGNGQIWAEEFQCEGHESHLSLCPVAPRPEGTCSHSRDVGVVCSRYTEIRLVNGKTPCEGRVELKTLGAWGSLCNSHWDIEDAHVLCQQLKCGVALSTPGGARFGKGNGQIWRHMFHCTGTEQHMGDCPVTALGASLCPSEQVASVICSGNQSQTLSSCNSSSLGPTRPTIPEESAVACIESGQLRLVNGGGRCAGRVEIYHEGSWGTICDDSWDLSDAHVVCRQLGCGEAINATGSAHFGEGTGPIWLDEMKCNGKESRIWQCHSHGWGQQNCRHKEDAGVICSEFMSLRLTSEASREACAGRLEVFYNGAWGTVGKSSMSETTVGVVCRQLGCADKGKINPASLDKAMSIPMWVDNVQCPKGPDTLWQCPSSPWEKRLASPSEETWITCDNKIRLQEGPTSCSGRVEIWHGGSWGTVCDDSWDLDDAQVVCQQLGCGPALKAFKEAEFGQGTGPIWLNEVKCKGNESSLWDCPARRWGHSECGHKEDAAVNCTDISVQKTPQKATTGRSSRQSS
Chain of CD163 ectodomain D292A/D293A (Q86VB7 42-1050 D292A/D293A): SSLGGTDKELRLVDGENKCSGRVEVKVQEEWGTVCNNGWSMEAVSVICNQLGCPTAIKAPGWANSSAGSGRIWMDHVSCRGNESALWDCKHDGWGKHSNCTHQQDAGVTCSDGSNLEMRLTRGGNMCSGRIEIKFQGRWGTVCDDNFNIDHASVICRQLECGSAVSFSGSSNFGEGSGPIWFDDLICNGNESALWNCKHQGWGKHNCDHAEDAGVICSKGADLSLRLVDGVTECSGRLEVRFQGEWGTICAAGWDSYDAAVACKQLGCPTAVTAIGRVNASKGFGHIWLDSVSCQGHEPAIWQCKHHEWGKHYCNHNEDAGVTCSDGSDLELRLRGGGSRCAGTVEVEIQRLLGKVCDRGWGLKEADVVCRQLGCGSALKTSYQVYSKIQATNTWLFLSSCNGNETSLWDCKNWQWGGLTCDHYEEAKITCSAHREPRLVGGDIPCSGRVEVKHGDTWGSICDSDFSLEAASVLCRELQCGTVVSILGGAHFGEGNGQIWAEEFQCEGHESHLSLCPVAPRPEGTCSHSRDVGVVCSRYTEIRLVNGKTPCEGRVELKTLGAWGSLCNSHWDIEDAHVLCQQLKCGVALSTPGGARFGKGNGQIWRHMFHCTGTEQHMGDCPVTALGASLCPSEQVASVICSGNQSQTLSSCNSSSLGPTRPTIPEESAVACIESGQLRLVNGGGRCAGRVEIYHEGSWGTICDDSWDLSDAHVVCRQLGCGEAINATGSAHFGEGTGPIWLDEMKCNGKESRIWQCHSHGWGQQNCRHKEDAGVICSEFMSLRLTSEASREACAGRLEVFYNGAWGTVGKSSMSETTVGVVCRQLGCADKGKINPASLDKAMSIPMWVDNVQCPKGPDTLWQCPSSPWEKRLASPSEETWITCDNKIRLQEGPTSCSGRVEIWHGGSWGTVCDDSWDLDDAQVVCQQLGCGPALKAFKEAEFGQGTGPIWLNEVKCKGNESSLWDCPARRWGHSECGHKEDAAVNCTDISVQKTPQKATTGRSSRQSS

Binder: B1
stoichiometry N (AUC [1]): 2 | stoichiometry N (SEC [2]): ~3 | stoichiometry N (AUC [3]): 3

B2: hemoglobin-haptoglobin 2 complex (Hb-Hp2) (complex)
chain 1: not shown
chain 2: not shown
chain 3: VDSGNDVTDIADDGCPKPPEIAHGYVEHSVRYQCKNYYKLRTEGDGVYTLNDKKQWINKAVGDKLPECEADDGCPKPPEIAHGYVEHSVRYQCKNYYKLRTEGDGVYTLNNEKQWINKAVGDKLPECEAVCGKPKNPANPVQRILGGHLDAKGSFPWQAKMVSHHNLTTGATLINEQWLLTTAKNLFLNHSENATAKDIAPTLTLYVGKKQLVEIEKVVLHPNYSQVDIGLIKLKQKVSVNERVMPICLPSKDYAEVGRVGYVSGWGRNANFKFTDHLKYVMLPVADQDQCIRHYEGSTVPEKKTPKSPVGVQPILNEHTFCAGMSKYQEDTCYGDAGSAFAVHDLEEDTWYATGILSFDKSCAVAEYGVYVKVTSIQDWVQKTIAEN
binding result [4]: binds

Binder: B4
binding result (SEC [7]): binds

Results, then the binder that gave them:

binding result (CD163 ectodomain E359A): binds | binding result [5]: binds | binding result [6]: binds
B3: hemoglobin-haptoglobin 1 complex (Hb-Hp1) (complex)
chain 1: not shown
chain 2: not shown
chain 3: VDSGNDVTDIADDGCPKPPEIAHGYVEHSVRYQCKNYYKLRTEGDGVYTLNNEKQWINKAVGDKLPECEAVCGKPKNPANPVQRILGGHLDAKGSFPWQAKMVSHHNLTTGATLINEQWLLTTAKNLFLNHSENATAKDIAPTLTLYVGKKQLVEIEKVVLHPNYSQVDIGLIKLKQKVSVNERVMPICLPSKDYAEVGRVGYVSGWGRNANFKFTDHLKYVMLPVADQDQCIRHYEGSTVPEKKTPKSPVGVQPILNEHTFCAGMSKYQEDTCYGDAGSAFAVHDLEEDTWYATGILSFDKSCAVAEYGVYVKVTSIQDWVQKTIAEN

binding result [8]: binds | binding result [9]: binds
B5: human hemoglobin (complex)
chain 1: not shown
chain 2: not shown

— PMC12279954 (Nature Communications, 2025)
